Blank lines part the entries; values can stand above or below the binder they belong to.
How the values were obtained:
Assay in all cases: cryo-EM structure; endogenous mouse Mediator immunopurified from CH12 nuclear extract through 3×FLAG-MED19 or 3×FLAG-MED25; eluted in 50 mM HEPES pH 7.9, 100 mM KCl, 5% glycerol, 1 mM EDTA, 0.005% NP-40; map at 4.0 Å overall, focused refinement of the MED1 and knob/hook ends (6-10 Å)
Conditions in all cases: both partners purified
MED15 = biological target: T1, MED15 (mouse (Mus musculus; endogenous in CH12), UniProt Q924H2 1-789)
T1 construct: MED15, Mus musculus, endogenous lower Tail subunit of Mediator; only the C-terminal portion (from residue 620) is seen in the map; source: endogenous, CH12 mouse B lymphoma nuclear extract; immunopurified as part of Mediator (FLAG M2 agarose, FLAG peptide elution)
T1 sequence (looked up): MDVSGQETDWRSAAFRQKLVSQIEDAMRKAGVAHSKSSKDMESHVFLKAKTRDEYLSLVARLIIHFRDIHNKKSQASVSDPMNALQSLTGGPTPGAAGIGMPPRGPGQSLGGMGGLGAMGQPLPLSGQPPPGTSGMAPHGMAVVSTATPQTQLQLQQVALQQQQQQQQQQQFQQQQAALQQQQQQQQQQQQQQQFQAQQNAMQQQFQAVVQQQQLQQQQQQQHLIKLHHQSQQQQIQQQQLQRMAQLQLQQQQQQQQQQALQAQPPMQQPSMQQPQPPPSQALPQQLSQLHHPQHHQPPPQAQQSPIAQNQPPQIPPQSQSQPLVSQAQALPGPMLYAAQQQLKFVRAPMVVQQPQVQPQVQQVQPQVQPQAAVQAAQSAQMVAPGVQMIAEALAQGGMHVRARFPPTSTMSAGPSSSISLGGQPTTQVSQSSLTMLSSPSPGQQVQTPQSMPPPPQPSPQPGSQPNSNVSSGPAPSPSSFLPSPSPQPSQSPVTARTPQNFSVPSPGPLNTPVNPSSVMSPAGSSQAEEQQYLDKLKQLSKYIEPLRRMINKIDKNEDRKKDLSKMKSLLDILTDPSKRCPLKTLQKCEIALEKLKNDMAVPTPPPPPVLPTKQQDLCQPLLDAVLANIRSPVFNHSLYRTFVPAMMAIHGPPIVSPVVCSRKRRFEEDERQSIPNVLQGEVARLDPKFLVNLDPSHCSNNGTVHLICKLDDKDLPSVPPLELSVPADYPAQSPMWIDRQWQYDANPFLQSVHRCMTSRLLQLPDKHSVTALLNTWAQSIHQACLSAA

MED24 = biological target: T2, MED24 (mouse (Mus musculus; endogenous in CH12), UniProt Q99K74 1-987)
T2 construct: MED24, Mus musculus, endogenous lower Tail subunit of Mediator; source: endogenous, CH12 mouse B lymphoma nuclear extract; immunopurified as part of Mediator (FLAG M2 agarose, FLAG peptide elution)
T2 sequence (looked up): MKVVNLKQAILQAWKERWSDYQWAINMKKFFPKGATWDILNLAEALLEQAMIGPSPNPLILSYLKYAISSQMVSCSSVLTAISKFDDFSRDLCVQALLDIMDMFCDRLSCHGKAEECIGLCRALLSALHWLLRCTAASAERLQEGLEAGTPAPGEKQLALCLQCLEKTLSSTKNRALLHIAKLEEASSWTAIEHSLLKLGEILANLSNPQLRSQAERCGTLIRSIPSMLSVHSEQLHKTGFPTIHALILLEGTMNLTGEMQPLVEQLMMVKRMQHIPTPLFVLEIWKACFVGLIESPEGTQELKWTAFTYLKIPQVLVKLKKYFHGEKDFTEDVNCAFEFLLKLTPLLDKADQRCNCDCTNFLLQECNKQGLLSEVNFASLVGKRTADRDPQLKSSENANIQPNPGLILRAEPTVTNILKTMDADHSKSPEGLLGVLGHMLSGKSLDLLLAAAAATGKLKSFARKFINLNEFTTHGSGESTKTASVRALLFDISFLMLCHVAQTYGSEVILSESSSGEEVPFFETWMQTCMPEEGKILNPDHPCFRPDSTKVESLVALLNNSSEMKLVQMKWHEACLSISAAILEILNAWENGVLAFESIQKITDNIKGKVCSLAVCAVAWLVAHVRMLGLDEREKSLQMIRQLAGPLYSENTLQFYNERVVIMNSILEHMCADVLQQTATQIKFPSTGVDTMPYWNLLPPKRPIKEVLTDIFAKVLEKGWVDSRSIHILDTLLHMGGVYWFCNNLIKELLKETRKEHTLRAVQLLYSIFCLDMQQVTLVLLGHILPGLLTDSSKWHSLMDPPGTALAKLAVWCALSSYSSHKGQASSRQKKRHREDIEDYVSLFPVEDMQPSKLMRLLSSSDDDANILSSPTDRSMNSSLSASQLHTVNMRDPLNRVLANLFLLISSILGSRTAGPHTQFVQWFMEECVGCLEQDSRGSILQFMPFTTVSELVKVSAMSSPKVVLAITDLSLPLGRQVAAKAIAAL

MED23 = biological target: T3, MED23 (mouse (Mus musculus; endogenous in CH12), UniProt Q80YQ2 1-1367)
T3 construct: MED23, Mus musculus, endogenous lower Tail subunit of Mediator; Model building started from the X-ray structure of human MED23 (PDB 6H02); source: endogenous, CH12 mouse B lymphoma nuclear extract; immunopurified as part of Mediator (FLAG M2 agarose, FLAG peptide elution)
T3 sequence (looked up): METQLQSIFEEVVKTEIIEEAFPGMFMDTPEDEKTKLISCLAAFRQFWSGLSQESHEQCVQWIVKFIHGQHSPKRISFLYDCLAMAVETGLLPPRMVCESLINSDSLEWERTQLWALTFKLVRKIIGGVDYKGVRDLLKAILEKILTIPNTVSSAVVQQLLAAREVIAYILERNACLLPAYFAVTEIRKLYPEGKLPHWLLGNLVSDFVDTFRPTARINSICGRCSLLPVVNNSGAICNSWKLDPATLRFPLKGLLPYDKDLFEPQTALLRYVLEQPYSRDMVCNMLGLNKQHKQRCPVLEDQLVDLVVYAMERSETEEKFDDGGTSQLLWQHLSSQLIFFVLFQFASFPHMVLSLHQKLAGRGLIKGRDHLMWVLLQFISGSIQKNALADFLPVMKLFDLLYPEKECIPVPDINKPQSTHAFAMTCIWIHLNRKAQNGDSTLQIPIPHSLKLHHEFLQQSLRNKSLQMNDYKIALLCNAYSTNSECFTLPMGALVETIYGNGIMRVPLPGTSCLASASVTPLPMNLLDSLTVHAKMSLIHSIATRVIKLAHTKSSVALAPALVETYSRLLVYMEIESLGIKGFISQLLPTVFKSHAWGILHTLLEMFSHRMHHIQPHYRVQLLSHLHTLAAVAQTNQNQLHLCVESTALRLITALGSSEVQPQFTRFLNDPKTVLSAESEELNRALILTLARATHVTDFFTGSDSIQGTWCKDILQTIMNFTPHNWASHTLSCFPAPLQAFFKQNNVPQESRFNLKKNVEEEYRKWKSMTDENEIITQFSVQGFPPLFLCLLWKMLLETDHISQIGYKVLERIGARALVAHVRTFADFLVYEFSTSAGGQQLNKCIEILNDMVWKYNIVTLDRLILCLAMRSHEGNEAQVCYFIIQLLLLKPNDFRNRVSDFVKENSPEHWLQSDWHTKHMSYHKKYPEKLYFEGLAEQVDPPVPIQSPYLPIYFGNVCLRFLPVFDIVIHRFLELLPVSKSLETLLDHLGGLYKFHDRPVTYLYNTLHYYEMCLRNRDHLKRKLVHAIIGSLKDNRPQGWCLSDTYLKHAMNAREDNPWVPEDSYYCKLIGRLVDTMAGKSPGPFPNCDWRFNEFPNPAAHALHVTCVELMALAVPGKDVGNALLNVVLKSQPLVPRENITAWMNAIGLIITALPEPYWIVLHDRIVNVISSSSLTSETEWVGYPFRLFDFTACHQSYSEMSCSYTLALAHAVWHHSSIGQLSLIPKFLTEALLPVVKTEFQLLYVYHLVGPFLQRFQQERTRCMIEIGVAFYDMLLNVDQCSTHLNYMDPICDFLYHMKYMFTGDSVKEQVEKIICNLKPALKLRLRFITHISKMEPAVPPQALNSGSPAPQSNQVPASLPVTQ

- binding result (MED15): binds
B1: MED17 (natural protein, mouse (Mus musculus; endogenous in CH12), UniProt Q8VCD5 1-649, looked up)
chain: MSGVRAVRISIESACEKQVQEVGLDGTETYLQPLSMSQNLARLAQRIDFSQGSGSEEEEAAGPDGDAPDWGGAGADQDDEEGLVKFQPSLWPWDSVRNNLRSALTEMCVLYDVLSIVRDKKFMTLDPVSQDALPPKQSPQTLQLISKKKSLAGAAQILLKGAERLTKSVAENQENKLQRDFNSELLRLRQHWKLRKVGDKILGDLSYRSAGSLFPHHGTFEVIKNTDIDLDKKIPEDYCPLDVQIPSDLEGSAYIKVSIQKQAPDIGDLGTVNLFKRPLPKSKPGSPHWQTKLEAAQNVLLCKEIFAQLSREAVQIKSQIPHIVVKNQIISQPFPSLQLSISLCHSSDDKKSQKCAAEKPGQEDHLYVLEHNLHLLIREFHKQTLSSIVMPHPASAPFGHKRMRLSGPQAFDKNEINSIQSTEGLLEKIIKQAKHIFLRSRTAATIDSLASRIEDPQIQAHWSNINDVYESSVKVLITSQGYEQICKSIQLQLNIGVEQVRVVHRDGRVIMLSHQEQELQDFLLSQMSQHQVHAVQQLAKVMGWQVLSFSNHVGLGPIESIGNASAITVASPSGDYAISVRNGPESGSKIMVQFPRNQCKDLPKSDVLQDSKWSHLRGPFKEVQWNKMEGRNFVYKMELLMSALSPCLL
notes: MED17, Mus musculus, endogenous Head module scaffold subunit of Mediator; source: endogenous, CH12 mouse B lymphoma nuclear extract; immunopurified as part of Mediator (FLAG M2 agarose, FLAG peptide elution)

- binding result (MED24): binds
- binding result (MED23): binds
B2: MED16 (natural protein, mouse (Mus musculus; endogenous in CH12), UniProt Q6PGF3 1-828, looked up)
chain: MDLAYVCEWEKWAKSTYCPSLPLACAWSCRNLIAFTTDLRNDDQDLTHMIHILDTEHPWEVHSVSSGHSEAITCLEWDQSGSRLLSADADGQIKCWSMADHLANSWESSVGSQVEGDPIVALSWLHNGVKLALHVEKSGASSFGEKFSRVKFSPSLTLFGGKPMEGWIAVTVSGLVTVSLLKPSGQVLTSTESLCRLRGRVALADIAFTGGGNIVVAAADGSSASPVKFYKVCVSVVSEKCRIDTEILPSLFMRCTTDPNRKDRFPAITHLKFLARDMSEQVLLCASSQTSSLVECWSLRKEGLPVNNIFQQISPVVGDKQPMILKWRILSATNDLDRVSAVALPKLPISLTNTDLKVASDTQFYPGLGLALAFQDGSVHMVHRLSLQTMAVFYSSAPRSLDEPALKRPRTTCPAVHFKAMQLSWTSLALVGIDNHGKLSMLRISPSLGHPLEPKLALQHLLFLLEYCMVTGYDWWDILLHVQPGMVQSLVERLHEEYTRQKPALQQVLSTRILAMKASLCKLSPCTVARVCDYHTKLFLMAITSTLKSLLRPHFLNTPDKSPGDRLAEICAKITDVDIDKVMINLKTEEFVLDMNTLQALQQLLQWVGDFVLYLLVSLPNQGSPLRPGHSFLRDGTSLGMLRELMVVIRIWGLLKPSCLPVYTATSDTQDSMSLLFRLLTKLWICCRDEGAASEPDEGLVDECCLLPSQLLVPNLDWLPASDGLVSRLQPKQPLRLRFGRAPTLPSSTSTLQLDGLTRAPGQPKIDHLRRLHLGAYPTEECKACTRCGCVTMLKSPNKTTAVTQWEQRWIKNCLCGGLWRRVPLSCS
notes: MED16, Mus musculus, endogenous lower Tail subunit of Mediator; source: endogenous, CH12 mouse B lymphoma nuclear extract; immunopurified as part of Mediator (FLAG M2 agarose, FLAG peptide elution)

— article PMC7921410, “Structure of mammalian Mediator complex reveals Tail module architecture and interaction with a conserved core” (Nature Communications, 2021)
